Patent publication US20210130491A1 (ONCOTAG DIAGNOSTICS, published 2021)

What was measured:
[1] = biological target: T1, MRS fragment 3 (267~597 aa); assay: western blot of lysates of H460 cells transfected with Myc-tagged MRS fragments
T1 construct: Expressed in H460 cells from pcDNA3; also called lane 3
T1 single chain: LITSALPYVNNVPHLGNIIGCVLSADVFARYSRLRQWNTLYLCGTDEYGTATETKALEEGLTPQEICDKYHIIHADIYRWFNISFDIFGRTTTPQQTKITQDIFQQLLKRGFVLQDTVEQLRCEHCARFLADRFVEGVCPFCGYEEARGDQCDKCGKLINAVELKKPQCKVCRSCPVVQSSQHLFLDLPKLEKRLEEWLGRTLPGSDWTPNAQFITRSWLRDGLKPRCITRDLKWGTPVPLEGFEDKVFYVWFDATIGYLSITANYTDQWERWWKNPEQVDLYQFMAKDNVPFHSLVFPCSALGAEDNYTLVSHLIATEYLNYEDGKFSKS
Description: (§1) Six fragments of different lengths and positions were prepared based on the GST, catalytic domain, and tRNA binging domains of the MRS protein, and MRS protein and each of the MRS fragments were cloned into pcDNA3 vector (EV). At this time, since Myc protein is linked to the N-terminus of MRS protein, Myc protein was used as a control.
(§2) Then, 2 μg of the cloned vector DNA were transfected into H460 cells using Turbofect (Thermo) according to the manufacturer's instructions. After 24 hours, cells were harvested and subjected to western blot. 1E8 antibody and 8A12 antibody were diluted 1:5000 (0.2 μg/mL) as the primary antibody.

[2] = biological target: T2, MRS fragment 2 (267~417 aa); assay: as above
T2 construct: Expressed in H460 cells from pcDNA3; also called lane 2
T2 single chain: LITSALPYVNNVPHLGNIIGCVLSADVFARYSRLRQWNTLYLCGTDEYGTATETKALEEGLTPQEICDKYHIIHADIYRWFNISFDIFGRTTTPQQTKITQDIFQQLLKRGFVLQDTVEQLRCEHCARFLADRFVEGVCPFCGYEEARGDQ
Description: as §1, §2

[3] = biological target: T3, MRS fragment 4 (1~597 aa); assay: as above
T3 construct: Expressed in H460 cells from pcDNA3; also called lane 4
T3 single chain: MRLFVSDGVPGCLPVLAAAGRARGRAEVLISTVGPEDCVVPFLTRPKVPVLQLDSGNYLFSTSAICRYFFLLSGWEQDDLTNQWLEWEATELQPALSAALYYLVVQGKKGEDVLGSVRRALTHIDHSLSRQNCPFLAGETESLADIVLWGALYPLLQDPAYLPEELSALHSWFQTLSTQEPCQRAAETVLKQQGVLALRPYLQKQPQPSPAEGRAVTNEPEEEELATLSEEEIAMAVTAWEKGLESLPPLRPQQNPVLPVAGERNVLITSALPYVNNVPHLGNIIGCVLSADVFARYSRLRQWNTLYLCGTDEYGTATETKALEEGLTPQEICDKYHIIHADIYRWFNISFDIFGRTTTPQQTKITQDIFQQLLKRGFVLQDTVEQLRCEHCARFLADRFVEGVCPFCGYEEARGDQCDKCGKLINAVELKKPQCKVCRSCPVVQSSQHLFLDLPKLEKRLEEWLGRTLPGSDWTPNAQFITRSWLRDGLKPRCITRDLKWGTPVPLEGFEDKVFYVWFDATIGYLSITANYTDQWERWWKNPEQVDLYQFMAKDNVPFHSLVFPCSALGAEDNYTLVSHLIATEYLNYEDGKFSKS
Description: as §1, §2

[4] = biological target: T4, MRS fragment 1 (1~266 aa); assay: as above
T4 construct: Expressed in H460 cells from pcDNA3; also called lane 1
T4 single chain: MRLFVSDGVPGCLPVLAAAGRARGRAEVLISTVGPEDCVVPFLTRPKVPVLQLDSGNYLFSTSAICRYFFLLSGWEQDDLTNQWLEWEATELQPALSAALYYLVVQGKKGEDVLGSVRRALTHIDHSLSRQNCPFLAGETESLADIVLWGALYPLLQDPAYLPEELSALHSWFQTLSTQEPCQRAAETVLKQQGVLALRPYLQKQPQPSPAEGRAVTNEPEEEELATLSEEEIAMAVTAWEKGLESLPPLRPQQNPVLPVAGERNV
Description: as §1, §2

His-GRS = biological target: T5, His-GRS (UniProt P41250 55-739); assay: ELISA, protein coated at 1 ug/ml
T5 construct: not shown: His tag
T5 sequence (looked up): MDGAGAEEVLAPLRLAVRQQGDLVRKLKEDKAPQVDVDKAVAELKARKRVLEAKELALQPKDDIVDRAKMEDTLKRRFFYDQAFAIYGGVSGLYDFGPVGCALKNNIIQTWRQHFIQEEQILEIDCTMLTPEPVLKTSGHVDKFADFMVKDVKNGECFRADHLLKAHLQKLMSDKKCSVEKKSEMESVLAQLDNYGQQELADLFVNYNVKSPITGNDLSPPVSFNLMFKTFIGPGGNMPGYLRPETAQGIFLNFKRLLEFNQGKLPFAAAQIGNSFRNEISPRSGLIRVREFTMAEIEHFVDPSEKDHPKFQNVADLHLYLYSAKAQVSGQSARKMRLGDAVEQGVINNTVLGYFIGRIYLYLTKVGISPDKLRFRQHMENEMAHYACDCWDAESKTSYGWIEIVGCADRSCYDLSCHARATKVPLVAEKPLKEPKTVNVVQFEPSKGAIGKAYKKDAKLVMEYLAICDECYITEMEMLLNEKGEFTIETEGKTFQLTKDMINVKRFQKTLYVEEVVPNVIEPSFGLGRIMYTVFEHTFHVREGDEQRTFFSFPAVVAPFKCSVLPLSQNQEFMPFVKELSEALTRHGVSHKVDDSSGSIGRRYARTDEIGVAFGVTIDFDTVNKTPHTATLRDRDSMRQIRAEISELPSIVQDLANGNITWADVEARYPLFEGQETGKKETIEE
Description: Each well of 96 well plates (Corning 3690 flat bottom, 96-well half-area plates) was coated with different kinds of ARS proteins (His-MRS, MRS full, DX2 tag free, 34S-DX2, 34S-AIMP2, His-CRS, His-AIMP1, His-GRS, His-WRS, His-KRS) at the concentration of 1 μg/ml. 1E8 and 8A12 antibodies at a concentration of 500 ng/ml were added onto the 96 well plates coated with ARS proteins and allowed to react for 1 hour. Thereafter, HRP-conjugated anti-mouse IgG secondary antibody was added and reacted for 1 hour. ELISA was performed and absorbance was measured at 450 nm. TMB (3,3′,5,5′-tetramethylbenzidine) was used as substrate.

B1: 1E8 antibody (1E8 IgG) (antibody, V domains shown)
VH: DVKLQESGPGLVNPSQSLSLTCTVTGYSITSDYAWNWIRQFPGNKLEWMGYISYSGRTSYKSSLKSRISITRDTSKNQFFLELNSVTTEDTATYYCARDYGNFVGYFDVWGAGTTVTVSS
VL: DIVMTQSPSSLAVSVGEKVTMSCKSSQSLLYSSNQKNYLAWYQQKPGQSPKLLIYWASTRESGVPDRFTGSGSGTEFTLTISSVKAEDLAVYYCQQYYSYPTFGGGTKLEIKA
notes: Mouse monoclonal from hybridoma clone 1E8; also called IE8; anti-MRS antibody (1E8)
Q: What does the source list for B1?
A: binding result [1]: no binding (tested: 0.2 µg/mL (1:5000, from paragraph 148)); binding result [2]: no binding (tested: 0.2 µg/mL (1:5000, from paragraph 148)); binding result [3]: no binding (tested: 0.2 µg/mL (1:5000, from paragraph 148)); binding result [4]: no binding (tested: 0.2 µg/mL (1:5000, from paragraph 148)); binding result (His-GRS): no binding (tested: 500 ng/ml)

B2: 8A12 antibody (8A12 IgG) (antibody, V domains shown)
VH: DVKLQESGPGLVKPSQSLSLTCTVTGYSITSEYAWTWIRQFPGNKLEWMGYINYNGNTNLNPSLKSRISIIRDTSKNQFFLQLNSVTTEDTATYYCARSLWPRGWFAYWGQGTLVTVSA
VL: DIQMTQSPSSMYASLGERVTITCKASQDINSYLSWFQQKPGKSPKTLMYRANRLVDGVPSRFSGSGSGQDYSLTISSLEYEDMGIYYCLQYDEFPRTFGGGTKLEIKA
notes: Mouse monoclonal from hybridoma clone 8A12; also called 8Al2; anti-MRS antibody (8A12)
Q: Does B2 bind [1]?
A: Result: no binding (tested: 0.2 µg/mL (1:5000, from paragraph 148))

Q: Does B2 bind [2]?
A: Result: no binding (tested: 0.2 µg/mL (1:5000, from paragraph 148))

Q: Does B2 bind [3]?
A: Result: no binding (tested: 0.2 µg/mL (1:5000, from paragraph 148))

Q: Does B2 bind [4]?
A: Result: no binding (tested: 0.2 µg/mL (1:5000, from paragraph 148))

Q: Does B2 bind (His-GRS)?
A: Result: no binding (tested: 500 ng/ml)
